What was measured:
[1] = target: T1, C-terminal His-tagged human DLL4 (amino acid 1-404) (human, UniProt Q9NR61 26-404); experiment: SPR BIAcore-3000, antibody coupled to CM5 chip, DLL4-His injected, 25 C
T1 construct: range 26-404; the text calls it human DLL4-His; also called DLL4-His; human DLL4-His; not shown: C-terminal His tag
Procedure: (§1) To determine the binding affinity of the anti-DLL4 Mabs, surface plasmon resonance (SRP) measurement with a BIAcore™-3000 was used (BIAcore, Inc., Piscataway, N.J.). Briefly, carboxymethylated dextran biosensor chips (CM5, BIAcore Inc.) were activated with N-ethyl-N′-(3-dimethylaminopropyl)-carbodiimide hydrochloride (EDC) and N-hydroxysuccinimide (NHS) according to the supplier's instructions. […] Next, IM ethanolamine was injected to block unreacted groups. […] Association rates (kon) and dissociation rates (koff) were calculated using a simple one-to-one Langmuir binding model (BIAcore Evaluation Software version 3.2). The equilibrium dissociation constant (Kd) was calculated as the ratio koff/kon.

His-tagged murine DLL4 = target: T2, His-tagged murine DLL4 (murine, UniProt Q9JI71 27-405, limits assumed); experiment: as above
T2 construct: domain: ECD5.5; also called murine DLL4-His; murine Delta4 (ECD5.5); not shown: His tag
Procedure: as §1

T1 sequence (Q9NR61 26-404 limits assumed): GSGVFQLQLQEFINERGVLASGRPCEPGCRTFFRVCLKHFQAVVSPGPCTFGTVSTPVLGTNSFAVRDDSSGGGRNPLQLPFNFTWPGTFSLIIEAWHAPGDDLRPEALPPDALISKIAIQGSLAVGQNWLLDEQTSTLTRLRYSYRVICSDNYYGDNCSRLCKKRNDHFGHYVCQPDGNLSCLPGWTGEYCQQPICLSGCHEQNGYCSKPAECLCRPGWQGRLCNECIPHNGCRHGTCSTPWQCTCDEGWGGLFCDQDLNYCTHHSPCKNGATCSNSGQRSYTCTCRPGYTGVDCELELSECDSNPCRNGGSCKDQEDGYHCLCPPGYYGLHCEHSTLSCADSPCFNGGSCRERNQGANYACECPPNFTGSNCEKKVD
T2 sequence (Q9JI71 27-405 limits assumed): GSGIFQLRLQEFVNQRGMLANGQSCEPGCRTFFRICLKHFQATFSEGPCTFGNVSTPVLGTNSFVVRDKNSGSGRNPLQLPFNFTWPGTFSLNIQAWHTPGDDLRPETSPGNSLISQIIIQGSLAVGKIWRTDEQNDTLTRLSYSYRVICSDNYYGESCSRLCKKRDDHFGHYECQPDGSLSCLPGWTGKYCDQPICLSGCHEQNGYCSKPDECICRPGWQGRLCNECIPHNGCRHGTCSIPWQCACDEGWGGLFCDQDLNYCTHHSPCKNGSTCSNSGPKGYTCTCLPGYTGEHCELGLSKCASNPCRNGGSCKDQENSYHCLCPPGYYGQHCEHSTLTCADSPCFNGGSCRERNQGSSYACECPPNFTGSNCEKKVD

B1: YW26 (antibody, V domains shown)
VH: EVQLVESGGGLVQPGGSLRLSCAASGFTFTDNWISWVRQAPGKGLEWVGVINPNSGSTDYADSVKGRFTISADTSKNTAYLQMNSLRAEDTAVYYCARDNFGGYFDYWGQGTLVTVSS
VL: DIQMTQSPSSLSASVGDRVTITCRASQDVSTAVAWYQQKPGKAPKLLIYSASFLYSGVPSRFSGSGSGTDFTLTISSLQPEDFATYYCQQSYTTPPTFGQGTKVEIK
notes: Only the six HVRs are tied to the clone; also called clone 152.26; anti-DLL4 antibody
Kd [1]: 25 nM
koff [1]: 0.00074 s⁻¹
kon [1]: 30000 M⁻¹ s⁻¹
Kd (His-tagged murine DLL4): 28 nM
koff (His-tagged murine DLL4): 0.0016 s⁻¹
kon (His-tagged murine DLL4): 57000 M⁻¹ s⁻¹

B2: YW26.34 (antibody, V domains shown)
VH: EVQLVESGGGLVQPGGSLRLSCAASGFTFTDNWISWVRQAPGKGLEWVGLINPTSGSTIYADSVKGRFTISADTSKNTAYLQMNSLRAEDTAVYYCARDNFGGYFDYWGQGTLVTVSS
VL: DIQMTQSPSSLSASVGDRVTITCRASQDVSTAVAWYQQKPGKAPKLLIYSASFLYSGVPSRFSGSGSGTDFTLTISSLQPEDFATYYCQQSYTGPSTFGQGTKVEIK
notes: Only the six HVRs are tied to the clone; also called clone 152.26.34
Kd [1]: 0.35 nM
koff [1]: 6.7e-05 s⁻¹
kon [1]: 190000 M⁻¹ s⁻¹
Kd (His-tagged murine DLL4): 0.18 nM
koff (His-tagged murine DLL4): 6.5e-05 s⁻¹
kon (His-tagged murine DLL4): 360000 M⁻¹ s⁻¹

B3: YW26.6 (antibody, V domains shown)
VH: EVQLVESGGGLVQPGGSLRLSCAASGFTFTDNWISWVRQAPGKGLEWVGLINPQSGSSDYADSVKGRFTISADTSKNTAYLQMNSLRAEDTAVYYCARDNFGGYFDYWGQGTLVTVSS
VL: DIQMTQSPSSLSASVGDRVTITCRASQDVSTAVAWYQQKPGKAPKLLIYSASFLYSGVPSRFSGSGSGTDFTLTISSLQPEDFATYYCQQSYTGQSTFGQGTKVEIK
notes: Only the six HVRs are tied to the clone; also called clone 152.26.6
Kd [1]: 0.25 nM

B4: YW26.14 (antibody, V domains shown)
VH: EVQLVESGGGLVQPGGSLRLSCAASGFSFRDNWISWVRQAPGKGLEWVGVINPNSGSTDYADSVKGRFTISADTSKNTAYLQMNSLRAEDTAVYYCARDNFGGYFDYWGQGTLVTVSS
VL: DIQMTQSPSSLSASVGDRVTITCRASQDVSTAVAWYQQKPGKAPKLLIYSASFLYSGVPSRFSGSGSGTDFTLTISSLQPEDFATYYCQQSVNGPATFGQGTKVEIK
notes: also called clone 152.26.14
Kd [1]: 0.37 nM
koff [1]: 6.6e-05 s⁻¹
kon [1]: 180000 M⁻¹ s⁻¹
Kd (His-tagged murine DLL4): 0.22 nM
koff (His-tagged murine DLL4): 7.3e-05 s⁻¹
kon (His-tagged murine DLL4): 330000 M⁻¹ s⁻¹

Reference: patent US20080175847A1 (Genentech, published 2008)
